The target in the experiment is 5T4 antigen on the cell surface (A431 cells and 5T4 over-expressing recombinant MDA-MB-231 cells) (human) (UniProt Q13641). Nature of the experiment: flow cytometry (MFI) on 5T4-expressing cells, anti-Fc FITC detection.

This note sets out measurements from patent US11434278.

Sequence of 5T4 antigen on the cell surface (A431 cells and 5T4 over-expressing recombinant MDA-MB-231 cells) (human) (Q13641 32-420): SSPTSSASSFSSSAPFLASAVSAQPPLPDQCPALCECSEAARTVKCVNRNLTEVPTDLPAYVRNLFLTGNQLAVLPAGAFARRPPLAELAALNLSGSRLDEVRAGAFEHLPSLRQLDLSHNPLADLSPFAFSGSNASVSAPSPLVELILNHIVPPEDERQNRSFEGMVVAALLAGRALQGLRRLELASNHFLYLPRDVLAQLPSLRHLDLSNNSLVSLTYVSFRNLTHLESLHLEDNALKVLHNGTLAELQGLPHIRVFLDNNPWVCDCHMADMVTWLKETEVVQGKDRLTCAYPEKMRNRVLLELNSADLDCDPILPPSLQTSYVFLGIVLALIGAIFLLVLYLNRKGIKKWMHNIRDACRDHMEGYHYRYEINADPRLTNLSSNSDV

In the case of non-binding scFvFc fusion protein, the fold less binding than the anti-5T4 scFvFc molecules worked out at 200 fold less.
